Test results: patent US6767887

Biological target: human neutral endopeptidase 24.11 (human) (UniProt P08473)
Test: cell-based or functional assay

- Degradation rate (mM/100 ng/ml NEP24.11/min): 0.0586
Substance: GLP-1-(7-36)-NH2 (from UniProt P01275 98-127) (peptide)
